Test results: publication PMC8764033, “Single-molecule analysis of specificity and multivalency in binding of short linear substrate motifs to the APC/C” (Nature Communications, 2022)
Where “and” joins values, the source holds several entries; their conditions need not be identical. Identical values can stand only once.

Key:
APC/C^apo = biological target: T1, APC/C^apo (Saccharomyces cerevisiae, UniProt P38042+P53068); assay: SMOR assay, yeast APC/C^apo (no activator); type: binding; conditions: Supplementary Table 1, single movie
T1 construct: APC/C was purified from yeast cells; made in house; host or cells: S. cerevisiae W303 strain NHY13 (Cdc16-TAP, Apc1-GFP, cdh1 deleted)
Method: Yeast strains were derivatives of W303 and are listed in Supplementary Table 2. For APC/C purification, we used a strain carrying Cdc16-TAP and lacking Cdh1 (DOM1126); in most experiments, the strain also carried Apc1-GFP (NHY13). Yeast were grown in YPD media to OD600 = 0.8, collected and flash-frozen. Cells were lysed by bead beating in lysis buffer A (50 mM HEPES pH 7.5, 150 mM KCl, 10% glycerol, 0.2% Triton X-100, 63 µM B-glycerophosphate, 48 µM sodium fluoride, 1 µg ml^−1 pepstatin A, 1 µg ml^−1 leupeptin, 1 µg ml^−1 aprotinin, 1 mM PMSF, 1 mM DTT, 0.5 mM EDTA) and APC/C was purified using magnetic IgG beads. The beads were washed using wash buffer A (20 mM HEPES pH 7.5, 150 mM KCl, 10% Glycerol, 0.05% Triton X-100). After incubation with purified Cdh1 or Cdc20, the APC/C was cleaved off the beads with TEV protease in wash buffer A with 0.05% Tween-20 (for single-molecule studies) or 0.05% Triton X-100 (for ensemble assays such as ubiquitylation) and used immediately. […]
(§1) Microscopy was performed with a Nikon Eclipse TE2000-E with Perfect Focus with a 100 × 1.49na oil, Apo TIRF DIC N2, 0.13-0.2, WD0.12 objective. Movies were recorded using the Andor iXon DU-897E-CSO. […]

APC/C [1] = conditions: APC/C^Cdc20 vs APC/C^Cdh1; cited from earlier work
From the text: We find that the yeast securin ...

APC/C^Apc10-4A, Cdh1 = assay: SMOR assay, yeast APC/C^Apc10-4A, Cdh1; type: binding, Saccharomyces cerevisiae
Method: Yeast strains were derivatives of W303 and are listed in Supplementary Table 2. For APC/C purification, we used a strain carrying Cdc16-TAP and lacking Cdh1 (DOM1126); in most experiments, the strain also carried Apc1-GFP (NHY13). Yeast were grown in YPD media to OD600 = 0.8, collected and flash-frozen. Cells were lysed by bead beating in lysis buffer A (50 mM HEPES pH 7.5, 150 mM KCl, 10% glycerol, 0.2% Triton X-100, 63 µM B-glycerophosphate, 48 µM sodium fluoride, 1 µg ml^−1 pepstatin A, 1 µg ml^−1 leupeptin, 1 µg ml^−1 aprotinin, 1 mM PMSF, 1 mM DTT, 0.5 mM EDTA) and APC/C was purified using magnetic IgG beads. The beads were washed using wash buffer A (20 mM HEPES pH 7.5, 150 mM KCl, 10% Glycerol, 0.05% Triton X-100). After incubation with purified Cdh1 or Cdc20, the APC/C was cleaved off the beads with TEV protease in wash buffer A with 0.05% Tween-20 (for single-molecule studies) or 0.05% Triton X-100 (for ensemble assays such as ubiquitylation) and used immediately.
For all SMOR experiments, 24 × 50 mm high precision glass coverslips (Bioscience Tools) and drilled microscope slides were passivated with a combination of PEG and PEG-biotin (coverslips) or PEG only (slides) following a previously published protocol for SiMPull[31]. Reaction chambers (~20 µl) were created using double-sided tape and epoxy. Protein was immobilized on the surface with 0.2 mg ml^−1 NeutrAvidin in buffer C (20 mM HEPES pH 7.5, 150 mM KCl, 10% glycerol, 0.05% Tween-20, 1 mM DTT). Excess NeutrAvidin was washed away and incubated with either biotin-conjugated mouse monoclonal anti-Strep-Tag II antibody (LSBio, Cat. No. LS-C203632-100) or biotin-conjugated rabbit polyclonal anti-GFP antibody (Rockland, Cat. No. 600-406-215) diluted in buffer C + BSA (0.1 mg ml^−1; Molecular Biology Grade Bovine Serum Albumin). Activator WD40 and activated APC/C (typically 50 µl containing about 65 ng APC/C, of which only a small fraction is immobilized on the glass) were immobilized using anti-Strep-Tag II, while APC/C alone was immobilized with anti-GFP. SMOR results were similar when performed in the buffer (wash buffer B) used in polarization anisotropy.
To capture dynamic protein–protein interactions, dye-labeled substrate diluted in buffer C + BSA was added to the chamber containing immobilized proteins. Interactions were imaged by TIRF microscopy as described below. For optimal signal-to-noise ratio, peptide concentration was no greater than 1 nM. […]
as §1

APC/C [2] = assay: APC/C ubiquitylation assay; type: biochemical, yeast; conditions: listed as Hsl1^Halo
Method: APC/C ubiquitylation assays were performed as described previously. In short, APC/C was purified from yeast as described above using magnetic IgG beads and activated with a purified Cdh1 or Cdc20 activator. For all APC/C ubiquitylation assays, substrates were produced by in vitro translation with ^35S-Methionine (see Supplementary Table 5 for plasmids). Substrates were purified using magnetic IgG beads. E1 and E2 (Ubc4) were expressed in E. coli and purified as described previously[25],[42]. E2 was charged at 37 °C for 30 min (reaction contained 0.2 mg ml^−1 Uba1, 2 mg ml^−1 Ubc4, 2 mg ml^−1 methylated ubiquitin from Boston Biochem #Y-501, and 1 mM ATP). Charged E2 was added to a reaction containing activated APC/C and substrate. Reaction products were analyzed by SDS-PAGE and Phosphorimaging on a Typhoon 9400 Imager. […]

Chain of APC/C^Apc10-4A, Cdh1 (P53197 whole entry): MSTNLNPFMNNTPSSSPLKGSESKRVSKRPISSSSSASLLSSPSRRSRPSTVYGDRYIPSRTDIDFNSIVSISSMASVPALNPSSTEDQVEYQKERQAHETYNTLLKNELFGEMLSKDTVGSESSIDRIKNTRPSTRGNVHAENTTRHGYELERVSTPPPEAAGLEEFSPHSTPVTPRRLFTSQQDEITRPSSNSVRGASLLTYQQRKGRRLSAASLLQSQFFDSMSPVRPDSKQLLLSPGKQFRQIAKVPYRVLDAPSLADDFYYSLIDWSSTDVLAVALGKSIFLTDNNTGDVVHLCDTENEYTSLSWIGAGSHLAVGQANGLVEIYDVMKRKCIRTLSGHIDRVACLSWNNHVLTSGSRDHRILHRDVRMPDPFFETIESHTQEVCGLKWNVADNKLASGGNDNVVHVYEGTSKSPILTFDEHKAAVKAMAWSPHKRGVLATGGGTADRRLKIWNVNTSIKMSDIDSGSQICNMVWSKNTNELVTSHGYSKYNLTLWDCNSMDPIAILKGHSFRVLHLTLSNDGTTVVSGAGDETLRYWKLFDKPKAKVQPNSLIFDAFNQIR

B1: Hsl1^Halo KEN & D: Hsl1 fragment (amino acids 667–872) with C-terminal HaloTag, JF549-labeled (protein)
chain: QNSASKRSLYSLQSISKRSLNLNDLLVFDDPLPSKKPASENVNKSEPHSLESDSDFEILCDQILFGNALDRILEEEEDNEKERDTQRQRQNDTKSSADTFTISGVSTNKENEGPEYPTKIEKNQFNMSYKPSENMSGLSSFPIFEKENTLSSSYLEEQKPKRAALSDITNSFNKMNKQEGMRIEKKIQREQLQKKNDRPSPLKPIQ
modifications: JF549 or JF646 dye covalently bound to the HaloTag; left off: HaloTag, C-terminal, kept | TAP, C-terminal, cleaved
notes: Hsl1 fragment (amino acids 667–872) with C-terminal HaloTag, JF549-labeled
For B1, the “Dwell Time (in words)” value (APC/C^apo) is listed as “no binding”, the “processivity of ubiquitylation (in words)” value (APC/C [1]) is listed as “more processively modified by APC/C^Cdh1” and the “binding (in words)” value (APC/C^Apc10-4A, Cdh1) is listed as “This boost in affinity was not seen in the Apc10-4A mutant”. For the same molecule, the “Dwell Time” value (APC/C^Apc10-4A, Cdh1; Supplementary Table 1, replicate 1 (movie listed first)) was 42.881 ± 2.489 s, the “Dwell Time” value (APC/C^Apc10-4A, Cdh1; Supplementary Table 1, replicate 2 (movie listed second)) was 75.919 ± 3.159 s and the mean dwell time (APC/C^Apc10-4A, Cdh1; representative of two independent experiments, ± SE, ligand ≤1 nM, buffer C + BSA) was 75.9 ± 3 s and 75.9 s. The “ubiquitylation (in words)” value (APC/C [2]) was “HaloTag does not affect ubiquitylation or binding”.
